From patent US20230365670A1 (SCOUT BIO, published 2023)
Numbering of substitutions follows the chain as printed.

Assays:
[1] = molecular target: T1, mouse (murine) NGF (mouse (murine), UniProt P01139 122-241, limits assumed); experiment: ELISA, plates coated with 0.1 µg/ml muNGF, antibody at 100 to 1.56 ng/ml for the binding curve, goat anti-feline IgG-HRP detection
T1 construct: also called muNGF
Protocol: Pharmacokinetic (PK) studies were conducted in healthy cats. Four animals were administered each of the felinized anti-NGF antibodies (fe_αD11, fe_αD11+HCCDR1(F/L) and fe_αD11+HCCDR2(LN)) subcutaneously (s.c.) at 2.0 mg/kg on Days 0, 21, 42 and 63. Serum concentrations of the antibodies were assessed over 91 days. The concentration of each antibody in the serum was determined using an NGF-binding ELISA. Briefly, ELISA plates were coated with 0.1 μg/ml mouse (murine) NGF (muNGF) and blocked with PBS/0.05% Tween 20/1% BSA. muNGF-coated wells were then incubated for 1 hour at room temperature with antibody preparations, diluted in PBS/0.05% Tween 20/1% BSA (100 μl/well). Antibody concentrations ranging from 100 ng/ml to 1.56 ng/ml were used to establish a binding curve. After washing, the plates were incubated with a 1/5,000 dilution of goat anti-feline IgG-HRP in PBS/0.05% Tween 20/1% BSA. Plates were washed with PBS/0.05% Tween 20 and developed by the addition of TMB substrate. Development was stopped by the addition of 2M H₂SO₄, absorbance read at 450 nm and background values were subtracted from the absorbance readings. The non-compartmental pharmacokinetic parameters of the three felinized anti-NGF antibodies post-dose 1 and 4 were calculated using PKsolver. software.

[2] = molecular target: T1, mouse (murine) NGF; experiment: ELISA, plates coated with 0.1 µg/ml muNGF, antibody at 100 to 1.56 ng/ml for the standard curve, goat anti-canine IgG-HRP detection
Protocol: Pharmacokinetic (PK) studies were conducted in healthy dogs. Four animals were administered purified ca_αD11_HCCDR2(LN) subcutaneously (SC) at 1.0 mg/kg body weight on Day 0 and Day 28 of the study. The ca_αD11_HCCDR2(LN) antibody carries the same CDR sequences as described in Tables 3 and 4, below. Serum concentrations of ca_αD11_HCCDR2(LN) were assessed over 56 days using an NGF-binding ELISA, as detailed below. Pharmacokinetic parameters were determined using PKSolver software (Zhang Y et al. Computer Methods and Programs in Biomedicine. 2010; 99(3):306-314). The emergence of anti-drug antibodies was assessed at Days 28 and 56 using a bridging electrochemiluminescence (ECL) assay, as detailed below.
The concentration of ca_αD11_HCCDR2(LN) in dog serum was determined using an NGF-binding ELISA. Briefly, ELISA plates were coated with 0.1 μg/ml murine NGF (muNGF) and blocked with PBS/0.05% Tween 20/1% BSA. muNGF coated wells were incubated for 1 hour at room temperature with serum diluted in PBS/0.05% Tween 20/1% BSA (100 μl/well). Antibody concentrations ranging from 100 ng/ml to 1.56 ng/ml were used to establish a standard curve. After washing, the plates were incubated with a 1/10,000 dilution of goat anti-canine IgG-HRP in PBS/0.05% Tween 20/1% BSA. […] Development was stopped by the addition of 2M H₂SO₄ and absorbance read at 450 nm and background was subtracted.

T1 sequence (P01139 122-241 limits assumed): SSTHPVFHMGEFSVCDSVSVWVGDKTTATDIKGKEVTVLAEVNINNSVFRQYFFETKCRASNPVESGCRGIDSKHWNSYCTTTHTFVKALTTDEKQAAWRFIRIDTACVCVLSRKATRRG

B1: fe_αD11_HCCDR1(F/L) (felinized anti-NGF monoclonal antibody, F to L at position 2 of heavy chain CDR1) (antibody, V domains shown)
VH: QVQLMESGADLVQPSESLRLTCVASGLSLTNNNVNWVRQAPGKGLEWMGGVWAGGATDYNSALKSRLTITRDTSKNTVFLQMHSLQSEDTATYYCARDGGYSSSTLYAMDAWGQGTTVTVSA
VL: DIEMTQSPLSLSATPGETVSISCRASEDIYNALAWYLQKPGRSPRLLIYNTDTLHTGVPDRFSGSGSGTDFTLKISRVQTEDVGVYFCQHYFHYPRTFGQGTKLELKR
notes: also called fe1_αD11_HCCDR1(F/L)
binding result [1]: binds

B2: fe_αD11 (felinized anti-NGF monoclonal antibody with the CDR sequences of rat αD11) (antibody, V domains shown)
VH: B1 VH with M5V, D10E, S15G, V23A, L27F
VL: B1 VL with A13V, T18S
notes: also called fe1_αD11
binding result [1]: binds

B3: fe_αD11_HCCDR2(L/V) (felinized anti-NGF monoclonal antibody, L to V at position 14 of heavy chain CDR2) (antibody, V domains shown)
VH: B1 VH with M5V, A9G, S15G, E16G, L27F, L63V
VL: B1 VL
notes: also called fe_αD11+HCCDR2(LN); fe_αD11_HCCDR2(LN)
binding result [1]: binds

B4: ca_αD11_HCCDR2(L/V) (caninized anti-NGF antibody) (antibody, V domains shown)
VH: EVTLQESGPGLVKPSQTLSLTCVVSGFSLTNNNVNWVRQRPGRGLEWMGGVWAGGATDYNSAVKSRISITRDTAKNQVSLQLSSMTTEDTAVYYCARDGGYSSSTLYAMDAWGQGTLVTVSS
VL: EIVMTQSPASLSLSQEEKVTITCRASEDIYNALAWYQQKPGQAPKLLIYNTDTLHTGVPSRFSGSGSGTDYSFTISSLEPEDVAVYFCQHYFHYPRTFGAGTKVELK
notes: The antibody was detected with goat anti-canine IgG-HRP; also called ca_αD11_HCCDR2(LN); CaNGF
binding result [2]: binds
